Here are results for one substance from article doi:10.1101/2020.09.30.319905.

Values joined by “and” are separate entries in the source; they are usually repeats but may differ in a detail not shown here. Identical values can stand only once.

The target of test [1] is Truncated ApoE3, residues 80-255 (central helical repeat segment) (human) (UniProt P02649). Briefly: cross-linking.
Test [2] shares this target. Description: SAXS.

What is called stoichiometry N is the number of molecules, sites or subunits per partner or assembly. Consider “Truncated ApoE3, residues 80-255 (central helical repeat segment) (from UniProt P02649 80-255) (domain or fragment)”, for which the stoichiometry N in test [1] was 2 and 3; in test [2] it was 4.
